# According to US20150086555A1:
# B1: TCN-521 (3280_D18) (antibody, V domains shown)
# VH: EVQLVQSGGGLVQPGGSLRLACVVSGFTVTSNYITWVRQAPGKGLEWVSVIYSHGRAYYSASVNGRFTISRHTSKNTVYLEMNSLRPEDTAVYYCAGGGLVGGYDEYFFDYWGQGTLATVSS
# VL: ETVLTQSPGTLSLTPGERATLSCRVGQSVSGSHLAWYQQKPGQAPRLLIYGASSRATGIPDRFGGSVSGTDFTLTISRLEPEDSAVYYCQQYGDSRYTFGQGTKLEIK
# B2: TCN-554 (5277_M05) (antibody, V domains shown)
# VH: QVQLVQSGADLKKPGASVKVSCKASGYTFTDYYIHWVRQAPGQGLEWMGWINPESGDTKYAQKFQGRVTMTRDTSITTAYMELGRLRSDDTAVYYCARDVSTTWSWFAPWGQGTLVTVSS
# VL: DIVMTQSPDSLAVSLGERATINCRSSQSIFHNSNNENYLAWYQQKPGQPPKLLIYWASTRESGVPDRFSGSGSGTDFTLTISSLQAEDVAVYFCQQYYNAPLTFGGGTKVEIK
# B3: Fab fragment of TCN-522 (3212_I12) (Fab, V domains shown)
# VH: QVQLQQWGAGLLKPSETLSLTCTVSGGSLTDYSWNWIRQPPGKGLEWIGDTLHNGYTNYNPSLRGRVSISIDTSKNQVSLRLTSVTAADTALYYCARGSGGYGGFDYFGKLRTWDFWGQGTLVTVSS
# VL: DIQLTQSPSSLSASVGDRVTITCRASQGIRNDLGWYQQKPGNAPKRLIFGASSLQSGVPSRFSGSGSGTEFTLTISSLQPEDFATYYCLQHNSYPYTFGQGTKLEIK
# B4: Fab fragment of TCN-523 (5248_A17) (Fab, V domains shown)
# VH: QVQLVQSGAEVKKPGSSVKVSCKASGGSFSNYAFSWVRQAPGQGLEWMGGTIPLLGTTNYAQKFQGRVTISADQFTSTAYMELGSLRSEDTAVYYCTRRKMTTAFDSWGQGTLVTVSS
# VL: QPVLTQPPSASASLGASVTLTCTLSSAYSNYKVDWYQQRPGKGPRFVMRVGTGGIVGSKGDGIPDRFSVLGSGLNRYLTIKNIQEEDESDYHCGADHGSGSNFVSPYVFGGGTKLTVL
# B5: Fab fragment of TCN-530 (5248_H10a) (Fab, V domains shown)
# VH: QVQLVQSGAEVRKPGSSVKVSCKASGGPFMSYAIGWVRQAPGQGLEWMGGINPVFGRPHYAQKFQGRVTIATDDSTKTSYMELSSLTSEDTGMYYCASRYSRSSPGTFESWGQGTLVTVSS
# VL: EIVMTQFPATLSVSPGERVTLSCRASQSVSNNLAWYQQKPGQPPRLLIYDASTRATGVPAKFSGTGSGTEFTLSISSLQSEDFAVYYCQQYHNWPPSYSFGLGTKLEIK
# B6: Fab fragment of TCN-534 (5249_B02) (Fab, V domains shown)
# VH: QVQLVQSGAEVKKPGSSVKVSCRESGGTFNGYTITWVRQAPGQGLEWMGGIIPMMGTVNYAQKLQGRVTITTDYFTKTAYMDLNNLRSEDTAMYYCVKIRYTGQQLLWGQGTLVTVSS
# VL: DIQMTQSPSTLSASIGDRVTITCRASQSIASWLAWYQQKPGKAPKLLIYEAVNLESGVPSRFSGSGSGTDFTLTISSLQPDDFATYFCQHYGTISQTFGGGTKVEIK
# B7: Fab fragment of TCN-535 (5246_P19) (Fab, V domains shown)
# VH: QVQLVQSGSEVKKPGTSVKVSCTASGSVFTNYGISWVRQAPGQGLEWMGGIIPLFGAAKYAQKFQGRVTITADESTKTVYMELSRLTSKDTAIYFCAKAPRVYEYYFDQWGQGTPVTVSS
# VL: EIVLTQSPGTLSLSPGERATLSCRASQSVSSSQLAWYQQKPGQAPRLIIYGASTRATGIPDRFSGSGSGTDFTLTIGRLEPEDFAVFFCQQYSTSPPTFGQGTKVDFK
# Experiments:
# Details in all cases: remark: other sources report otherwise
# [1] = target: recombinant soluble homotrimeric HA of A/Anhui/1/05 (H5N1) (Influenza A virus A/Anhui/1/2005(H5N1)); test: HA microarray, BCC supernatant
# [2] = target: recombinant soluble homotrimeric HA of A/Egypt/3300-NAMRU3/08 (H5N1) (Influenza A virus A/Egypt/3300-NAMRU3/2008(H5N1)); test: HA microarray, BCC supernatant
# [3] = target: recombinant soluble homotrimeric HA of A/Hong Kong/2108/03 (H9N2) (Influenza A virus A/HK/2108/2003(H9N2)); test: HA microarray, BCC supernatant
# [4] = target: recombinant soluble homotrimeric HA of A/Indonesia/5/05 (H5N1) (Influenza A virus A/Indonesia/5/2005(H5N1)); test: HA microarray, BCC supernatant
# [5] = target: recombinant soluble homotrimeric HA of A/Japan/305/57 (H2N2) (Influenza A virus A/Japan/305/1957(H2N2)); test: HA microarray, BCC supernatant
# [6] = target: recombinant soluble homotrimeric HA of A/Netherlands/219/03 (H7N7) (Influenza A virus A/Netherlands/219/03(H7N7)); test: HA microarray, BCC supernatant
# [7] = target: recombinant soluble homotrimeric HA of A/Solomon Islands/3/06 (H1N1) (Influenza A virus A/Solomon Islands/3/2006(H1N1)); test: HA microarray, BCC supernatant
# [8] = target: recombinant soluble homotrimeric HA of A/chicken/Vietnam/NCVD-016/08 (H5N1) (Influenza A virus A/chicken/Vietnam/NCVD-016/2008(H5N1)); test: HA microarray, BCC supernatant
# [9] = target: recombinant soluble homotrimeric HA of A/northern shoveler/California/HKWF115/07 (H6) (Influenza A virus A/northern shoveler/California/HKWF115/2007(H6N1)); test: HA microarray, BCC supernatant
# [10] = target: recombinant soluble homotrimeric HA of A/Wisconsin/67/05 (H3N2) (Influenza A virus A/Wisconsin/67/2005(H3N2)); test: HA microarray, BCC supernatant
# [11] = target: recombinant soluble homotrimeric HA of A/swine/Ontario/01911-2/99 (H4N6) (Influenza A virus A/Swine/Ontario/01911-2/99 (H4N6)); test: HA microarray, BCC supernatant
# [12] = target: recombinant soluble homotrimeric HA, A/Japan/305/57 H2N2 (Influenza A virus A/Japan/305/1957(H2N2)); test: microarray, transfection SN IgG, trimeric HA
# [13] = target: recombinant soluble homotrimeric HA, A/Netherlands/219/03 H7N7 (Influenza A virus A/Netherlands/219/03(H7N7)); test: microarray, transfection SN IgG, trimeric HA
# [14] = target: recombinant soluble homotrimeric HA, A/South Carolina/1/18 H1N1 (Influenza A virus A/South Carolina/1/18 (H1N1)); test: microarray, transfection SN IgG, trimeric HA
# [15] = target: recombinant soluble homotrimeric HA, A/Wisconsin/67/05 H3N2 (Influenza A virus A/Wisconsin/67/2005(H3N2)); test: microarray, transfection SN IgG, trimeric HA
# [16] = target: recombinant soluble homotrimeric HA, A/chicken/Vietnam/NCVD-016/08 H5N1 (Influenza A virus A/chicken/Vietnam/NCVD-016/2008(H5N1)); test: microarray, transfection SN IgG, trimeric HA
# [17] = target: recombinant soluble homotrimeric HA, A/duck/Yangzhou/02/05 H8N4 (Influenza A virus A/duck/Yangzhou/02/2005(H8N4)); test: microarray, transfection SN IgG, trimeric HA
# [18] = target: recombinant soluble homotrimeric HA, A/northern shoveler/California/HKWF115/07 H6N4 (Influenza A virus A/northern shoveler/California/HKWF115/2007(H6N1)); test: microarray, transfection SN IgG, trimeric HA
# [19] = target: recombinant homotrimeric HA A/Hong Kong/1073/99 H9N2 (Influenza A virus A/Hong Kong/1073/99 (H9N2)); test: protein microarray, purified IgG, trimeric HA
# [20] = target: recombinant homotrimeric HA A/Japan/305/57 H2N2 (Influenza A virus A/Japan/305/1957(H2N2)); test: protein microarray, purified IgG, trimeric HA
# [21] = target: recombinant homotrimeric HA A/Netherlands/219/03 H7N7 (Influenza A virus A/Netherlands/219/03(H7N7)); test: protein microarray, purified IgG, trimeric HA
# [22] = target: recombinant homotrimeric HA A/Solomon Islands/3/06 H1N1 (Influenza A virus A/Solomon Islands/3/2006(H1N1)); test: protein microarray, purified IgG, trimeric HA
# [23] = target: recombinant homotrimeric HA A/South Carolina/1/18 H1N1 (Influenza A virus A/South Carolina/1/18 (H1N1)); test: protein microarray, purified IgG, trimeric HA
# [24] = target: recombinant homotrimeric HA A/Wisconsin/67/05 H3N2 (Influenza A virus A/Wisconsin/67/2005(H3N2)); test: protein microarray, purified IgG, trimeric HA
# [25] = target: recombinant homotrimeric HA A/chicken/Vietnam/NCVD-016/08 H5N1 (Influenza A virus A/chicken/Vietnam/NCVD-016/2008(H5N1)); test: protein microarray, purified IgG, trimeric HA
# [26] = target: recombinant homotrimeric HA A/duck/Yangzhou/02/05 H8N4 (Influenza A virus A/duck/Yangzhou/02/2005(H8N4)); test: protein microarray, purified IgG, trimeric HA
# [27] = target: recombinant trimeric HA of H1N1 A/California/04/09 (Influenza A virus A/California/04/2009 (H1N1))
binder,measurement,setting,value
B1,Trimeric HA Binding: RLU,[1],487 RLU
same,Trimeric HA Binding: RLU,[2],47900 RLU
same,Trimeric HA Binding: RLU,[3],93 RLU
same,Trimeric HA Binding: RLU,[4],31500 RLU
same,Trimeric HA Binding: RLU,[5],6730 RLU
same,Trimeric HA Binding: RLU,[6],2500 RLU
same,Trimeric HA Binding: RLU,[7],39600 RLU
same,Trimeric HA Binding: RLU,[8],32400 RLU
same,Trimeric HA Binding: RLU,[9],48000 RLU
B2,Trimeric HA Binding: RLU,[5],328 RLU
same,Trimeric HA Binding: RLU,[6],610 RLU
same,Trimeric HA Binding: RLU,[7],115 RLU
same,Trimeric HA Binding: RLU,[10],46500 RLU
same,Trimeric HA Binding: RLU,[8],250 RLU
same,Trimeric HA Binding: RLU,[11],78 RLU
same,Trimeric HA Binding: RLU,[12],2620 RLU
same,Trimeric HA Binding: RLU,[13],4520 RLU
same,Trimeric HA Binding: RLU,[14],1260 RLU
same,Trimeric HA Binding: RLU,[15],25300 RLU
same,Trimeric HA Binding: RLU,[16],2710 RLU
same,Trimeric HA Binding: RLU,[17],5810 RLU
same,Trimeric HA Binding: RLU,[18],3350 RLU
same,Trimeric HA Binding: RLU,[19],539 RLU
same,Trimeric HA Binding: RLU,[20],705 RLU
same,Trimeric HA Binding: RLU,[21],342 RLU
same,Trimeric HA Binding: RLU,[22],1540 RLU
same,Trimeric HA Binding: RLU,[23],166 RLU
same,Trimeric HA Binding: RLU,[24],27100 RLU
same,Trimeric HA Binding: RLU,[25],544 RLU
same,Trimeric HA Binding: RLU,[26],386 RLU
B3,Kd,[27],0.55 nM
same,koff,[27],3.8e-05 s⁻¹
same,kon,[27],69800 M⁻¹ s⁻¹
B4,Kd,[27],0.09 nM
same,koff,[27],5.1e-05 s⁻¹
same,kon,[27],540000 M⁻¹ s⁻¹
B5,Kd,[27],0.562 nM
same,koff,[27],0.000287 s⁻¹
same,kon,[27],511000 M⁻¹ s⁻¹
B6,Kd,[27],0.104 nM
same,koff,[27],5.96e-05 s⁻¹
same,kon,[27],573000 M⁻¹ s⁻¹
B7,Kd,[27],0.165 nM
same,koff,[27],0.000163 s⁻¹
same,kon,[27],987000 M⁻¹ s⁻¹
